Bridges are numbered along the chain shown (N, C = ends). Primed or numbered codes have the meaning given here. [ ]: non-standard residue; d: D form. 8x polyethylene glycol‑amino = O-(8x polyethylene glycol-amino)-tyrosine, SITE 45; 9x polyethylene glycol‑azido = O-(9x polyethylene glycol-azido)-tyrosine, SITE 42; Ygp = O-(8x polyethylene glycol-amino)-tyrosine (Tyr, amino-capped PEG8); Yn3 = O-(9x polyethylene glycol-azido)-tyrosine (Tyr, azide-capped PEG9); Ygp″ = O-(8x polyethylene glycol-amino)-tyrosine; Yn3″ = O-(9x polyethylene glycol-azido)-tyrosine; PEG16′ = 16x polyethylene glycol; PEG24′ = 24x polyethylene glycol; Ygp(6) = Tyr, amino-capped PEG8; Yn3(6) = Tyr, azide-capped PEG9; PEG4′ = 4x polyethylene glycol; PEG9′ = 9x polyethylene glycol; hSer = N[C@@H](CCO)C(=O)O; Nle = CCCC[C@H](N)C(=O)O
What follows are binders tested against T1, IL-2Rβγ on HEK-Blue IL-2Rβγ reporter cells (InvivoGen) (UniProt P14784 27-551; P31785 23-369, limits assumed) (assay: cell-based or functional assay).
T1 sequence (looked up) 1: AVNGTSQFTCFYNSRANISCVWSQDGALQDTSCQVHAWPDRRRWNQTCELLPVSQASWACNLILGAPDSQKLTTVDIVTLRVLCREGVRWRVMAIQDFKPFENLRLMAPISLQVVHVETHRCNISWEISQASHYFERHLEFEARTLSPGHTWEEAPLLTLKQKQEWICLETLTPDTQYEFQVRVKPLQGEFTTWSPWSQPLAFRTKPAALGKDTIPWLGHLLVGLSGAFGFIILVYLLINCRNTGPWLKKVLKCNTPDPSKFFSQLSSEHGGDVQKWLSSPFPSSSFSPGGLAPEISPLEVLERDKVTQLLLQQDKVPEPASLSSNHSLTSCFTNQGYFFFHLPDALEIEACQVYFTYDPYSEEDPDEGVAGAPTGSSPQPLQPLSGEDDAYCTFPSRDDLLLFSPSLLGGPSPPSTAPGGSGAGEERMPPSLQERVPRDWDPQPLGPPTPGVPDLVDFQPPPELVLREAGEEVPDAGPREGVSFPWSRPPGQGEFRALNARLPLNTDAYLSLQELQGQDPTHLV
T1 sequence (looked up) 2: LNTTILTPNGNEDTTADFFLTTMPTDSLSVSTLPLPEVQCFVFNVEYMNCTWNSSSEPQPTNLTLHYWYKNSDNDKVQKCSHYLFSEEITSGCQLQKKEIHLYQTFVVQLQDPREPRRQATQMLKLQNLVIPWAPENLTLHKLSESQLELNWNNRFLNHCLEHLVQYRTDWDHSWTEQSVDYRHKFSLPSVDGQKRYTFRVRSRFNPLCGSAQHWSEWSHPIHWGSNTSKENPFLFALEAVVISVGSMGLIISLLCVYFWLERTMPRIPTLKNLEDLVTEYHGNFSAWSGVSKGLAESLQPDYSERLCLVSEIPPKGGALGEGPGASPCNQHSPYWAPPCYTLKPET

Row | Binder | Average EC50, HEK-Blue IL-2R (CD122+, CD132+) Reporter Assay, Matriptase cleaved molecule [nM] | Average EC50, HEK-Blue IL-2R (CD122+, CD132+) Reporter Assay, uPa cleaved molecule [nM] | Average EC50, HEK-Blue IL-2R (CD122+, CD132+) Reporter Assay, intact molecule [nM] | Average EC50, HEK-Blue IL-2R (CD122+, CD132+) Reporter Assay, MMP2 cleaved molecule [nM]
1 | CMP-330, matriptase cleaved (ligand, not fully specified; also: before the cut Lys9 and Glu23 side chains are bridged by a peptide linker, what remains after the cut not given here) APTSSSTKKTQLQLEHLLLDLQEILNGINNYKNPKLTR[Nle]L[hSer]Y(9x polyethylene glycol‑azido)KFY(8x polyethylene glycol‑amino)[Nle]PKKATELKHLQCLEEELKPLEEVL[hSer]LAQSKNFHLRPRDLISNINVIVLELKGSETTF[hSer]CEYADETATIVEFLNRWITFSQSIISTLT | 2.15 | – | – | –
2 | CMP-330, uPa cleaved (ligand, not fully specified; also: before the cut Lys9 and Glu23 side chains are bridged by a peptide linker, what remains after the cut not given here) APTSSSTKKTQLQLEHLLLDLQEILNGINNYKNPKLTR[Nle]L[hSer]Y(9x polyethylene glycol‑azido)KFY(8x polyethylene glycol‑amino)[Nle]PKKATELKHLQCLEEELKPLEEVL[hSer]LAQSKNFHLRPRDLISNINVIVLELKGSETTF[hSer]CEYADETATIVEFLNRWITFSQSIISTLT | – | 1.73 | – | –
3 | CMP-321, matriptase cleaved (ligand, not fully specified (bridges)) SGRVQPLVDAPTSSSTKKTQLQLEHLLLDLQEILNGINNYKNPKLTR[Nle]L[hSer][Yn3(6)]KF[Ygp(6)][Nle]PKKATELKHLQCLEEELKPLEEVL[hSer]LAQSKNFHLRPRDLISNINVIVLELKGSETTF[hSer]CEYADETATIVEFLNRWITFSQSIISTLT | 4.22 | – | – | –
4 | CMP-300 (ligand, lactam N-31; ends not checked) GPLGLAG[PEG4′]APTSSSTKKTQLQLEHLLLDLQEILNGINNYKNPKLTR[Nle]L[hSer][Yn3″]KF[Ygp″][Nle]PKKATELKHLQCLEEELKPLEEVL[hSer]LAQSKNFHLRPRDLISNINVIVLELKGSETTF[hSer]CEYADETATIVEFLNRWITFSQSIISTLT | – | – | 0.711 | –
5 | CMP-300, MMP2 cleaved (ligand, ends and bridges not checked; also: MMP2 cleaved, ring opened, cut site and remnants not given here) APTSSSTKKTQLQLEHLLLDLQEILNGINNYKNPKLTR[Nle]L[hSer][Yn3″]KF[Ygp″][Nle]PKKATELKHLQCLEEELKPLEEVL[hSer]LAQSKNFHLRPRDLISNINVIVLELKGSETTF[hSer]CEYADETATIVEFLNRWITFSQSIISTLT | – | – | – | 0.0094

Each binder was assayed against T2, IL-2 receptor βγ complex (human, UniProt P14784 27-551; P31785 23-369) (assay: cell-based or functional assay).
T2 sequence (looked up) 1: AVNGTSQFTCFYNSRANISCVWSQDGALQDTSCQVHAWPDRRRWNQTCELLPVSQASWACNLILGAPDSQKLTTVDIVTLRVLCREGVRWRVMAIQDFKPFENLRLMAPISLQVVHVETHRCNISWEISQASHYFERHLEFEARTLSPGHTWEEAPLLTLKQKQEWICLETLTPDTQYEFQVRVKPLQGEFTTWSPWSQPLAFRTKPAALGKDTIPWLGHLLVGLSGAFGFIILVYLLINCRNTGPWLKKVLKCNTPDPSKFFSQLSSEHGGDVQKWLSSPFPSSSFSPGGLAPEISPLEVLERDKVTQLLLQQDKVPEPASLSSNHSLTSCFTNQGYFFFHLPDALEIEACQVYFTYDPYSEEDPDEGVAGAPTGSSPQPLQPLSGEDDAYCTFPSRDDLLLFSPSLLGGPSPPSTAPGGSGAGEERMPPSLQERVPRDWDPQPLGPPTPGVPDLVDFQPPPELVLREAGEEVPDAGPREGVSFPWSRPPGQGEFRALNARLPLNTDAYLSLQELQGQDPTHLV
T2 sequence (looked up) 2: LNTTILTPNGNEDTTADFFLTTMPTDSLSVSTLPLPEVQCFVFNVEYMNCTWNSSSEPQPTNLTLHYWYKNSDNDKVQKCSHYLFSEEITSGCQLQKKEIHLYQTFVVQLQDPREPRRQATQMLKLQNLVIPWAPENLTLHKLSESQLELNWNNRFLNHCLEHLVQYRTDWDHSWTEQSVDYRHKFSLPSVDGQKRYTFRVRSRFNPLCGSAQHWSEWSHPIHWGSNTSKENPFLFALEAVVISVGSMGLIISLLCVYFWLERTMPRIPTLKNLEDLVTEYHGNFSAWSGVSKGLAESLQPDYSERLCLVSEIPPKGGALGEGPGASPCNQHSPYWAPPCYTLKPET

Row | Binder | Average EC50, pSTAT5 Assay (T cells) [nM]
6 | CMP-137 (ligand, bridge (positions not given here); not fully specified (bridges); ends not checked) [PEG24′]PLGLAG[PEG24′]APTSSSTKKTQLQLEHLLLDLQ[Nle]ILNGIENYKNPKLTR[Nle]L[hSer][Yn3]KF[Ygp][Nle]PKKATELKHLQCLEEELKPLEEVL[hSer]LAQSKNFHLRPRDLISNINVIVLELKGSETTF[hSer]CEYADETATIVEFLNRWITFSQSIISTLT | 27.1
7 | CMP-137, MMP2 cleaved molecule (ligand, ends and bridges not checked; also: cleaved by MMP2, cleavage product not defined, N-terminal PEG24 link and Glu29 side-chain attachment of the cleavable peptide not defined) APTSSSTKKTQLQLEHLLLDLQ[Nle]ILNGIENYKNPKLTR[Nle]L[hSer][Yn3]KF[Ygp][Nle]PKKATELKHLQCLEEELKPLEEVL[hSer]LAQSKNFHLRPRDLISNINVIVLELKGSETTF[hSer]CEYADETATIVEFLNRWITFSQSIISTLT | 4.09
8 | CMP-139 (ligand, bridge (positions not given here); not fully specified (bridges); ends not checked) [PEG16′]SGGPGPAGMKGLPGS[PEG16′]APTSSSTKKTQLQLEHLLLDLQ[Nle]ILNGIENYKNPKLTR[Nle]L[hSer][Yn3]KF[Ygp][Nle]PKKATELKHLQCLEEELKPLEEVL[hSer]LAQSKNFHLRPRDLISNINVIVLELKGSETTF[hSer]CEYADETATIVEFLNRWITFSQSIISTLT | 21.3
9 | CMP-139, MMP2 cleaved molecule (ligand, ends and bridges not checked; also: cleaved by MMP2, cleavage product not defined, N-terminal PEG16 link and Glu29 side-chain attachment of the cleavable peptide not defined) APTSSSTKKTQLQLEHLLLDLQ[Nle]ILNGIENYKNPKLTR[Nle]L[hSer][Yn3]KF[Ygp][Nle]PKKATELKHLQCLEEELKPLEEVL[hSer]LAQSKNFHLRPRDLISNINVIVLELKGSETTF[hSer]CEYADETATIVEFLNRWITFSQSIISTLT | 3.61
10 | CMP-152 (ligand, linker N-38 via PEG9‑glutaryl) PLGLAGAPTSSSTKKTQLQLEHLLLDLQ[Nle]ILNGINNYKNPKLTR[Nle]L[hSer][Yn3″]KF[Ygp″][Nle]PKKATELKHLQCLEEELKPLEEVL[hSer]LAQSKNFHLRPRDLISNINVIVLELKGSETTF[hSer]CEYADETATIVEFLNRWITFSQSIISTLT | 16.1
11 | CMP-152, MMP2 cleaved molecule (ligand, not fully specified (bridges); also: MMP2 cleaved, site not given here) PLGLAGAPTSSSTKKTQLQLEHLLLDLQ[Nle]ILNGINNYKNPKLTR[Nle]L[hSer][Yn3″]KF[Ygp″][Nle]PKKATELKHLQCLEEELKPLEEVL[hSer]LAQSKNFHLRPRDLISNINVIVLELKGSETTF[hSer]CEYADETATIVEFLNRWITFSQSIISTLT | 2.95
12 | CMP-154 (ligand, linker N-35 via PEG9′) PLGLAGAPTSSSTKKTQLQLEHLLLDLQ[Nle]ILNGIENYKNPKLTR[Nle]L[hSer][Yn3″]KF[Ygp″][Nle]PKKATELKHLQCLEEELKPLEEVL[hSer]LAQSKNFHLRPRDLISNINVIVLELKGSETTF[hSer]CEYADETATIVEFLNRWITFSQSIISTLT | 24.7
13 | CMP-154, MMP2 cleaved molecule (ligand, not fully specified (bridges); also: MMP2 cleaved, site not given here) PLGLAGAPTSSSTKKTQLQLEHLLLDLQ[Nle]ILNGIENYKNPKLTR[Nle]L[hSer][Yn3″]KF[Ygp″][Nle]PKKATELKHLQCLEEELKPLEEVL[hSer]LAQSKNFHLRPRDLISNINVIVLELKGSETTF[hSer]CEYADETATIVEFLNRWITFSQSIISTLT | 4.2
14 | CMP-155 (ligand, linker N-29 via GPLGLAG‑PEG9) APTSSSTKKTQLQLEHLLLDLQ[Nle]ILNGIENYKNPKLTR[Nle]L[hSer][Yn3″]KF[Ygp″][Nle]PKKATELKHLQCLEEELKPLEEVL[hSer]LAQSKNFHLRPRDLISNINVIVLELKGSETTF[hSer]CEYADETATIVEFLNRWITFSQSIISTLT | 10.7
15 | CMP-155, MMP2 cleaved molecule (ligand, not fully specified; also: cleaved by MMP2, cleavage product not defined, N-terminal PEG9 link and Glu29 side-chain attachment of the cleavable peptide not defined) APTSSSTKKTQLQLEHLLLDLQ[Nle]ILNGIENYKNPKLTR[Nle]L[hSer][Yn3″]KF[Ygp″][Nle]PKKATELKHLQCLEEELKPLEEVL[hSer]LAQSKNFHLRPRDLISNINVIVLELKGSETTF[hSer]CEYADETATIVEFLNRWITFSQSIISTLT | 2.9
16 | CMP-156 (ligand, linker N-19 via GPLGLAG‑PEG4) APTSSSTKKTQLQLEHLLEDLQ[Nle]ILNGINNYKNPKLTR[Nle]L[hSer][Yn3″]KF[Ygp″][Nle]PKKATELKHLQCLEEELKPLEEVL[hSer]LAQSKNFHLRPRDLISNINVIVLELKGSETTF[hSer]CEYADETATIVEFLNRWITFSQSIISTLT | 86
